What was measured:
Test in all cases: BLI
[1] = target: spike RBD of the Alpha variant (B.1.1.7) (SARS-CoV-2, Alpha (B.1.1.7), N501Y)
[2] = target: spike RBD of the Epsilon variant (SARS-CoV-2, Epsilon (B.1.429), strain)
[3] = target: spike RBD of the Lambda variant (SARS-CoV-2, Lambda (C.37), strain)

B1: mNb6(WT) (VHH)
VHH: QVQLVESGGGLVQAGGSLRLSCAASGYIFGRNAMGWYRQAPGKERELVAGITRRGSITYYADSVKGRFTISRDNAKNTVYLQMNSLKPEDTAVYYCAADPASPAYGDYWGQGTQVTVSS
- Kd [1]: 1.5 nM
- Kd [2]: 1.32 ± 0.11 nM
- Kd [3]: 2.86 ± 0.77 nM

From publication PMC9288967 (Chem, 2022)
